Assay results from patent US20030228371A1 (STASYS TECHNOLOGIES, published 2003).
Like-named read-outs stand apart in the source and are kept apart here. Square brackets hold non-standard residues; d marks the D form. Ends that are not written are not given here. * marks the point of attachment. 2Thi = N[C@@H](Cc1cccs1)C(=O)O; Nicotinoyl = O=C(c1cccnc1)*

Columns and labels:
[1] = molecular target: T1, human angiotensin AT2 receptor (human, UniProt P50052 1-363)
T1 sequence (looked up): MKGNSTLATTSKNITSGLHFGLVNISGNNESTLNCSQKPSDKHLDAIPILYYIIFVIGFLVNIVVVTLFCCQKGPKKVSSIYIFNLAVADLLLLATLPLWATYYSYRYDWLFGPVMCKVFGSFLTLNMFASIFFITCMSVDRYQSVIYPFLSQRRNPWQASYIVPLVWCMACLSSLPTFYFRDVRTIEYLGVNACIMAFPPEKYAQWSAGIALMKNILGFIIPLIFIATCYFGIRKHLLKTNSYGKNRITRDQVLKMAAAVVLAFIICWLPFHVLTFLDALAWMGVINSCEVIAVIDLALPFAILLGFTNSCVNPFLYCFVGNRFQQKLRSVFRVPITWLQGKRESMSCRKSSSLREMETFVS

[2] = molecular target: T1, human angiotensin AT2 receptor; remark: listed apart in the source
[3] = molecular target: T2, Thyrotropin Releasing Hormone; test: receptor panel ligand-binding screen, FPAh at 10 µM
T2 sequence (P34981 whole entry, species assumed, looked up): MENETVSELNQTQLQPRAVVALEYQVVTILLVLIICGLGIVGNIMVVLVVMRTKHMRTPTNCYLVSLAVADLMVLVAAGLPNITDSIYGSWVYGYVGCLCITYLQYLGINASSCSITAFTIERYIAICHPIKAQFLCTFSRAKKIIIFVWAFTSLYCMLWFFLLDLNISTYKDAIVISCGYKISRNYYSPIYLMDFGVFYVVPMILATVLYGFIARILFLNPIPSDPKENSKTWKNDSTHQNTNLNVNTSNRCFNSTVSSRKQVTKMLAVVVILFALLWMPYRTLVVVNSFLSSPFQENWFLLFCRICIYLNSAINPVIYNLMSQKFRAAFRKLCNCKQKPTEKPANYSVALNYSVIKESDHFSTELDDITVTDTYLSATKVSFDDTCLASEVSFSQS

[4] = molecular target: Potassium Channel [Ka]; test: as above
[5] = molecular target: Vascular endothelial growth factor; test: as above
[6] = molecular target: Inositol Triphosphate IP3; test: as above
[7] = molecular target: T3, Bradykinin B1; test: as above
T3 sequence (P46663 whole entry, species assumed, looked up): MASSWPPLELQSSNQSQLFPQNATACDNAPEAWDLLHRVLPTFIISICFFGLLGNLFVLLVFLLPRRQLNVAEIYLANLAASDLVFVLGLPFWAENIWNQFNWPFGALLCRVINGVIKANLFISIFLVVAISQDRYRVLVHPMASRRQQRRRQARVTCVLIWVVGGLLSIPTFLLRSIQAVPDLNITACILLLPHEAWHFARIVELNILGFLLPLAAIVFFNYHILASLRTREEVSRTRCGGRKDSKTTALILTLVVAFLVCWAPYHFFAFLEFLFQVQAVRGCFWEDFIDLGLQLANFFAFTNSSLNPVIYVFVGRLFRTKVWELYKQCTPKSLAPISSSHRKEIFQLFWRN

[8] = molecular target: Estrogen ERa; test: as above
[9] = molecular target: Serotonin 5-HT 2a; test: as above
[10] = molecular target: Cholecystokinin; test: as above
[11] = molecular target: Glutamate AMPA; test: as above
[12] = molecular target: T4, human angiotensin AT2 receptor (human) (UniProt P50052)
T4 sequence (looked up): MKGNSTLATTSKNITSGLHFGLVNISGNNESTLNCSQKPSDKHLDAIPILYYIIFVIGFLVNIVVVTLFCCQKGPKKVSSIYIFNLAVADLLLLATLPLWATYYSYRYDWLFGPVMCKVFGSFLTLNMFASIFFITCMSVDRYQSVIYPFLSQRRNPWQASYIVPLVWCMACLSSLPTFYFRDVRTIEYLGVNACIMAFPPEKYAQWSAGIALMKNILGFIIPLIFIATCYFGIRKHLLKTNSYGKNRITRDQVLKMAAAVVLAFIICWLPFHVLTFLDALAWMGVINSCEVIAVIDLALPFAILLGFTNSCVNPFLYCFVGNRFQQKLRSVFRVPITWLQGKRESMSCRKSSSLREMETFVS

[13] = molecular target: T1, human angiotensin AT2 receptor; test: [125I]CGP-42112A binding to membranes of HeLa cells expressing human AT2 receptor
Description: (§1) Compounds were screened at 10 μM. […] Biochem. Biophys. Res. Comm.

[14] = molecular target: T1, human angiotensin AT2 receptor; remark: listed apart in the source
Description: as §1

Serotonin 5-HT 2a, sequence (P28223 whole entry): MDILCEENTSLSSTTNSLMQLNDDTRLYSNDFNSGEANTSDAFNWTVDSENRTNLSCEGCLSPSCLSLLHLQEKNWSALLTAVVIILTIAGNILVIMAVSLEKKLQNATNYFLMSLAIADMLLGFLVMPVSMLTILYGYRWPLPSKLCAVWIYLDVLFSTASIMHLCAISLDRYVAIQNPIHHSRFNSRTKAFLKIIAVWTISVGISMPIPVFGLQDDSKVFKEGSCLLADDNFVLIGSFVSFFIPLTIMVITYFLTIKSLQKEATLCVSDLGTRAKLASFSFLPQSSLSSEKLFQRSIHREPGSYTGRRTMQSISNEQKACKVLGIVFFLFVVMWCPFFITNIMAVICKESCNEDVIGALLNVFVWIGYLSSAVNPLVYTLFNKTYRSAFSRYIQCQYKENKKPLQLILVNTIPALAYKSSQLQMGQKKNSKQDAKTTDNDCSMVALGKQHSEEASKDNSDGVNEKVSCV

Molecule	% Inhibition ATII receptor [1]	% Inhibition ATII receptor [14]	further results
[Lys0-Hyp3] Bradykinin (peptide)	13%	–	–
N-Admantaneacetyl-DArg0-Hyp3, Thi5,8,DPhe7] Bradykinin (peptide)	61%	–	–
Saralasin (peptide)	–	–	IC50 [2]: 0.28 nM; Ki [2]: 0.091 nM; nH [2]: 0.9
Bradykinin (1-3) (peptide)	-2%	–	–
N-Admantanecarbonyl-DArg0-Hyp3, Thi5,8, DPhe7] Bradykinin (peptide)	63%	–	–
ADSGEGDFLAEGGGVR [human form of Fibrinopeptide-A]	–	–	% inhibited (ligand-receptor binding) [3]: 23%; % inhibited (ligand-receptor binding) [4]: 25%; % stimulated (ligand-receptor binding) [5]: 22%; % inhibited (ligand-receptor binding) [6]: 33%; % inhibited (ligand-receptor binding) [7]: 24%; % inhibited (ligand-receptor binding) [8]: 33%; % stimulated (ligand-receptor binding) [9]: 21%; % inhibited (ligand-receptor binding) [10]: 33%; % stimulated (ligand-receptor binding) [11]: 30%
RPPG[2Thi]S[dF][2Thi]R [[Thi5,8,DPhe7] Bradykinin]	53%	–	–
XRPXGXSXXR (D-Arg at 0; Hyp at 3; Igl at 5; D-Igl at 7; Oic at 8 (bradykinin numbering)) [B9430]	70%	–	–
XRPXGXSXXR (D-Arg at 0; Hyp at 3; Thi at 5; D-Igl at 7; Oic at 8 (bradykinin numbering)) [B9340]	35%	–	–
XRPXGXSXXR (D-Arg at 0; Hyp at 3; Thi at 5; D-Tic at 7; Oic at 8 (bradykinin numbering)) [Hoe 140]	29%	–	–
RPPGFS[dF]FR [[DPhe7] Bradykinin]	9%	–	–
RPPGF [Bradykinin (1-5)]	1%	–	–
RPPGFSPYR [[Tyr8] Bradykinin]	–	–	% Inhibition ATII receptor [12]: -1%
PPGFSP [Bradykinin (2-7)]	-6%	–	–
RPPGFS [Bradykinin (1-6)]	-12%	–	–
PPGFSPFR [Bradykinin (2-9)]	-13%	–	–
Nicotinoyl-YKHPI-OH (not fully specified (residue 2), Modified peptide ligand of the AT2 receptor and radioligand of the assay; also called CPG42112A) [CGP-42112A]	–	–	Kd [13]: 0.012 nM; IC50 [14]: 0.024 nM; Ki [14]: 0.0078 nM; nH [14]: 1.1
KRPPGFSPL (also called VP041) [Lys-(Des-Arg9, Leu8)-Bradykinin]	–	98%	–
RPPGFSP (also called VP060) [Bradykinin (1-7)]	–	55%	–
MKRPPGFSPFR (also called VP049) [Met-Lys0] Bradykinin]	–	38%	–
KRPPGFSPFR (also called VP048) [[Lys0] Bradykinin]	–	29%	–
KRPAGFSPFR (also called VP050) [Lys0-Ala3] Bradykinin]	–	18%	–
YRPPGFSPFR (also called VP051) [[Tyr0] Bradykinin]	–	33%	–
ISRPPGFSPFR (also called VP054) [Ile-Ser0]-Bradykinin]	–	29%	–
RPPGYSPFR (also called VP053) [Tyr5] Bradykinin]	–	13%	–
